In the test the target is mouse CD22 (mouse) (UniProt P35329). Briefly: cell-based or functional assay.
Sequence of UniProt P35329 (P35329 22-868): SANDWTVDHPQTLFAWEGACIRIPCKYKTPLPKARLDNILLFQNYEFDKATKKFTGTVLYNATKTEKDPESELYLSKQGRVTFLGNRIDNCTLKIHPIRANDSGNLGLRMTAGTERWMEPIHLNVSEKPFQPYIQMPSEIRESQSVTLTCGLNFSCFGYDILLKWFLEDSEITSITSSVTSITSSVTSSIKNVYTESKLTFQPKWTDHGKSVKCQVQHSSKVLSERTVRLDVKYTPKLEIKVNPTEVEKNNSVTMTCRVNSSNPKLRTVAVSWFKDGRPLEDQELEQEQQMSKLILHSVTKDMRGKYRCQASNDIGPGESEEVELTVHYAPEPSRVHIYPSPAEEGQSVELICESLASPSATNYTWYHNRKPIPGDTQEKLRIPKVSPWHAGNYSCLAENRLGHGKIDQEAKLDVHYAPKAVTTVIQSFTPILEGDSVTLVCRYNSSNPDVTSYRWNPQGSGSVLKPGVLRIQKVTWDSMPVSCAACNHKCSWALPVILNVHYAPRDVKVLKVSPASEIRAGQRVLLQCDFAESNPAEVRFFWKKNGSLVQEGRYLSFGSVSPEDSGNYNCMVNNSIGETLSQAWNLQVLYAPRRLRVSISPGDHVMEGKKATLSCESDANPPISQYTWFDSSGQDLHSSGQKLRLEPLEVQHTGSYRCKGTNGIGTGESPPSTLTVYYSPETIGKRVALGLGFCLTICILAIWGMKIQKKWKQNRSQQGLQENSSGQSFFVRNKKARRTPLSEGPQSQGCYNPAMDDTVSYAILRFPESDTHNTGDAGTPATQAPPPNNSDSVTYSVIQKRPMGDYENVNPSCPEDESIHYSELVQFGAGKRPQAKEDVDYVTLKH

For “CD22/cal (Cy34.1 mAb conjugated to N-acetyl gamma calicheamicin dimethyl acid) (antibody)”, the IC50, in vitro cytotoxicity (proliferation of LPS-stimulated primary B cells, 48 hours) is 0.08 µg/mL; the IC50, proliferation of LPS-stimulated primary mouse B cells (3H thymidine, 48 hr) was determined as 0.03 µg/mL; the selectivity against the control immunoconjugate J110/cal (IC50 3 µg/ml), B cell proliferation amounted to 100 fold.

The values are drawn from patent US20110027273A1.
